{
  "source": "paper doi:10.1101/2020.04.14.041327",
  "about": "(bioRxiv, 2020)",
  "key": {"[1]": {"biological_target": "linear M1-linked tri-ubiquitin (UniProt P0CG48)", "sequence (P0CG48 1-228)": "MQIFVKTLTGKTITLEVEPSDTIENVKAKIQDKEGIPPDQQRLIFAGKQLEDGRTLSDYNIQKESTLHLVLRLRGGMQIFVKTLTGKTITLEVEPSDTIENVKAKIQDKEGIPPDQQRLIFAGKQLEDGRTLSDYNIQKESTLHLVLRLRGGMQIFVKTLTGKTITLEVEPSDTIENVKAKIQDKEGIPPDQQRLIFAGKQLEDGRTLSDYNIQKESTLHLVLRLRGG", "test": "ITC"}, "[2]": {"biological_target": "linear M1-linked tetra-ubiquitin (UniProt P0CG48)", "sequence (P0CG48 1-304)": "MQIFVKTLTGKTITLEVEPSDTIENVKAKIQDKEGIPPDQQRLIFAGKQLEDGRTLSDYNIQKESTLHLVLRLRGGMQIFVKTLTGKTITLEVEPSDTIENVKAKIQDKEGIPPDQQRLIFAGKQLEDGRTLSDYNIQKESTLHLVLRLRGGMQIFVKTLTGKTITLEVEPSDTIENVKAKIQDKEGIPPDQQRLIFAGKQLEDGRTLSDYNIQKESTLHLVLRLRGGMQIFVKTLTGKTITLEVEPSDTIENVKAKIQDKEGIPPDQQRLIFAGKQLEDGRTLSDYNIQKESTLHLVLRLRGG", "test": "ITC"}, "[3]": {"biological_target": "linear M1-linked tri-ubiquitin (UniProt P0CG48)", "test": "SEC-MALS"}, "[4]": {"biological_target": "linear M1-linked tetra-ubiquitin (UniProt P0CG48)", "test": "SEC-MALS"}, "[5]": {"biological_target": "the molecule itself", "test": "SEC-MALS"}, "[6]": {"biological_target": "linear M1-linked tri-ubiquitin (UniProt P0CG48)", "test": "SPR"}, "[7]": {"biological_target": "linear M1-linked tetra-ubiquitin (UniProt P0CG48)", "test": "SPR"}},
  "data": [
    {"binder": "Human NEMO 258-350 C347S (NEMO UBAN domain) (domain or fragment) MQLEDLKQQLQQAEEALVAKQEVIDKLKEEAEQHKIVMETVPVLKAQADIYKADFQAERQAREKLAEKKELLQEQLEQLQREYSKLKASSQES", "values": [
      {"measurement": "Kd", "setting": "[1]", "result": 1.6, "unit": "µM"},
      {"measurement": "dH", "setting": "[1]", "result": -4.28, "unit": "kcal/mol"},
      {"measurement": "Kd", "setting": "[2]", "result": 4.1, "unit": "µM"},
      {"measurement": "dH", "setting": "[2]", "result": -4.49, "unit": "kcal/mol"},
      {"measurement": "stoichiometry N", "setting": "[3]", "result": "2 NEMO monomers per poly-ubiquitin"},
      {"measurement": "stoichiometry N", "setting": "[4]", "result": "2 NEMO monomers per poly-ubiquitin"},
      {"measurement": "binding result", "setting": "[5]", "result": "binds"},
      {"measurement": "Kd", "setting": "[6]", "result": 9.6, "unit": "µM"},
      {"measurement": "Kd", "setting": "[7]", "result": 6.4, "unit": "µM"}
    ]}
  ]
}
